In patent publication US20230365662A1:
Values joined by “and” are separate entries in the source; they are usually repeats but may differ in a detail not shown here. Equal entries are not always repeated.

B1: parental mouse (KB001) Fab FASEBA, VL variant S57M (Fab, V domains shown)
VH: EVQLKQSGPGLVAPSQSLSITCTVSGFSLSIYSVHWVRQPPGKGLEWLGMIWGGGSSDYNSALKSRLSISKDNSKSQVFLKMNSLQTDDTAMYYCARNGNFYAMDYWGQGTSVTVSS
VL: QIVLTQSPAIMSASLGERVTMTCTASSSVSSSFLHWYQQKPGSSPQLWIYSTSNLAMGVPARFSGSGSGTSYSLTISSMEAEDAATYYCHQYHHSPYIYTFGGGTKLEIK
B2: parental mouse (KB001) Fab FASEBA, VL variant S95H (Fab, V domains shown)
VH: EVQLKQSGPGLVAPSQSLSITCTVSGFSLSIYSVHWVRQPPGKGLEWLGMIWGGGSSDYNSALKSRLSISKDNSKSQVFLKMNSLQTDDTAMYYCARNGNFYAMDYWGQGTSVTVSS
VL: QIVLTQSPAIMSASLGERVTMTCTASSSVSSSFLHWYQQKPGSSPQLWIYSTSNLASGVPARFSGSGSGTSYSLTISSMEAEDAATYYCHQYHHHPYIYTFGGGTKLEIK
B3: parental mouse (KB001) Fab FASEBA, VL variant S95N (Fab, V domains shown)
VH: EVQLKQSGPGLVAPSQSLSITCTVSGFSLSIYSVHWVRQPPGKGLEWLGMIWGGGSSDYNSALKSRLSISKDNSKSQVFLKMNSLQTDDTAMYYCARNGNFYAMDYWGQGTSVTVSS
VL: QIVLTQSPAIMSASLGERVTMTCTASSSVSSSFLHWYQQKPGSSPQLWIYSTSNLASGVPARFSGSGSGTSYSLTISSMEAEDAATYYCHQYHHNPYIYTFGGGTKLEIK
B4: parental mouse (KB001) Fab FASEBA, VL variant Q91E (Fab, V domains shown)
VH: EVQLKQSGPGLVAPSQSLSITCTVSGFSLSIYSVHWVRQPPGKGLEWLGMIWGGGSSDYNSALKSRLSISKDNSKSQVFLKMNSLQTDDTAMYYCARNGNFYAMDYWGQGTSVTVSS
VL: QIVLTQSPAIMSASLGERVTMTCTASSSVSSSFLHWYQQKPGSSPQLWIYSTSNLASGVPARFSGSGSGTSYSLTISSMEAEDAATYYCHEYHHSPYIYTFGGGTKLEIK
B5: parental mouse (KB001) Fab FASEBA, VL variant S95A (Fab, V domains shown)
VH: EVQLKQSGPGLVAPSQSLSITCTVSGFSLSIYSVHWVRQPPGKGLEWLGMIWGGGSSDYNSALKSRLSISKDNSKSQVFLKMNSLQTDDTAMYYCARNGNFYAMDYWGQGTSVTVSS
VL: QIVLTQSPAIMSASLGERVTMTCTASSSVSSSFLHWYQQKPGSSPQLWIYSTSNLASGVPARFSGSGSGTSYSLTISSMEAEDAATYYCHQYHHAPYIYTFGGGTKLEIK
B6: parental mouse (KB001) Fab FASEBA, VL variant H90L (Fab, V domains shown)
VH: EVQLKQSGPGLVAPSQSLSITCTVSGFSLSIYSVHWVRQPPGKGLEWLGMIWGGGSSDYNSALKSRLSISKDNSKSQVFLKMNSLQTDDTAMYYCARNGNFYAMDYWGQGTSVTVSS
VL: QIVLTQSPAIMSASLGERVTMTCTASSSVSSSFLHWYQQKPGSSPQLWIYSTSNLASGVPARFSGSGSGTSYSLTISSMEAEDAATYYCLQYHHSPYIYTFGGGTKLEIK
B7: parental mouse (KB001) Fab FASEBA (Fab, V domains shown)
VH: EVQLKQSGPGLVAPSQSLSITCTVSGFSLSIYSVHWVRQPPGKGLEWLGMIWGGGSSDYNSALKSRLSISKDNSKSQVFLKMNSLQTDDTAMYYCARNGNFYAMDYWGQGTSVTVSS
VL: QIVLTQSPAIMSASLGERVTMTCTASSSVSSSFLHWYQQKPGSSPQLWIYSTSNLASGVPARFSGSGSGTSYSLTISSMEAEDAATYYCHQYHHSPYIYTFGGGTKLEIK
B8: parental mouse (KB001) Fab FASEBA, VL variant Q91M (Fab, V domains shown)
VH: EVQLKQSGPGLVAPSQSLSITCTVSGFSLSIYSVHWVRQPPGKGLEWLGMIWGGGSSDYNSALKSRLSISKDNSKSQVFLKMNSLQTDDTAMYYCARNGNFYAMDYWGQGTSVTVSS
VL: QIVLTQSPAIMSASLGERVTMTCTASSSVSSSFLHWYQQKPGSSPQLWIYSTSNLASGVPARFSGSGSGTSYSLTISSMEAEDAATYYCHMYHHSPYIYTFGGGTKLEIK
B9: parental mouse (KB001) Fab FASEBA, VL variant S95Y (Fab, V domains shown)
VH: EVQLKQSGPGLVAPSQSLSITCTVSGFSLSIYSVHWVRQPPGKGLEWLGMIWGGGSSDYNSALKSRLSISKDNSKSQVFLKMNSLQTDDTAMYYCARNGNFYAMDYWGQGTSVTVSS
VL: QIVLTQSPAIMSASLGERVTMTCTASSSVSSSFLHWYQQKPGSSPQLWIYSTSNLASGVPARFSGSGSGTSYSLTISSMEAEDAATYYCHQYHHYPYIYTFGGGTKLEIK
B10: parental mouse (KB001) Fab FASEBA, VL variant H90W (Fab, V domains shown)
VH: EVQLKQSGPGLVAPSQSLSITCTVSGFSLSIYSVHWVRQPPGKGLEWLGMIWGGGSSDYNSALKSRLSISKDNSKSQVFLKMNSLQTDDTAMYYCARNGNFYAMDYWGQGTSVTVSS
VL: QIVLTQSPAIMSASLGERVTMTCTASSSVSSSFLHWYQQKPGSSPQLWIYSTSNLASGVPARFSGSGSGTSYSLTISSMEAEDAATYYCWQYHHSPYIYTFGGGTKLEIK

Target: HRgpA-6H (Porphyromonas gingivalis) (UniProt P28784)
UniProt P28784, sequence (P28784 228-991 limits assumed): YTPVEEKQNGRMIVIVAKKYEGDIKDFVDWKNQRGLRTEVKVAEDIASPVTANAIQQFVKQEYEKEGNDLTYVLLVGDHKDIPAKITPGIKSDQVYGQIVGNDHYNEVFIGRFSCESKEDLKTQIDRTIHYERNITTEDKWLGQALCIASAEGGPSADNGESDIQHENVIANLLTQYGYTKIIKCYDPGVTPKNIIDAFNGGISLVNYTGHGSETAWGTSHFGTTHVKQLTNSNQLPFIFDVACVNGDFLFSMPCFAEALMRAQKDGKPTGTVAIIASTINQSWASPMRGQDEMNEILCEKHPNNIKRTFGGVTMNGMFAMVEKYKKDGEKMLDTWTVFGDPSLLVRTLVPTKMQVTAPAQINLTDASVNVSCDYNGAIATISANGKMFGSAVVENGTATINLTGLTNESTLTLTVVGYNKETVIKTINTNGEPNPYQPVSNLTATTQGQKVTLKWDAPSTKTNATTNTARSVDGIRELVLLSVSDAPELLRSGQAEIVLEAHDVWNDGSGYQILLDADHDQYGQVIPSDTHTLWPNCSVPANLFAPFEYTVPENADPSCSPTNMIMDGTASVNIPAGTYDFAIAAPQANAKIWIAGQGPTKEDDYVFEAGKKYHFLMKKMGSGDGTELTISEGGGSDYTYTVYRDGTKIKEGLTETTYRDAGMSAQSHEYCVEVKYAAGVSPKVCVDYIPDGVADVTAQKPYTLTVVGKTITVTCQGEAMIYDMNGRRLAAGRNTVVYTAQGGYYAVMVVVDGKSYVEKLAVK
Assay: ELISA, Fab FASEBA supernatant on coated HRgpA-6H

| Binder | OD450nm | Ratio OD(Variant)/OD(WT) |
| --- | --- | --- |
| B1 | 0.745 OD450nm | 0.914 ratio to WT |
| B2 | 0.8 OD450nm | 0.871 ratio to WT |
| B3 | 0.863 OD450nm and 0.884 OD450nm | 0.94 ratio to WT and 0.962 ratio to WT |
| B4 | 0.709 OD450nm and 0.694 OD450nm and 0.701 OD450nm | 0.823 ratio to WT and 0.806 ratio to WT and 0.814 ratio to WT |
| B5 | 0.83 OD450nm and 0.872 OD450nm | 0.904 ratio to WT and 0.949 ratio to WT |
| B6 | 0.785 OD450nm and 0.694 OD450nm | 0.911 ratio to WT and 0.806 ratio to WT |
| B7 | 0.9 OD450nm and 0.889 OD450nm | 0.98 ratio to WT and 0.968 ratio to WT |
| B8 | 0.757 OD450nm | 0.879 ratio to WT |
| B9 | 0.827 OD450nm | 0.9 ratio to WT |
| B10 | 0.763 OD450nm | 0.886 ratio to WT |
